{"source": "paper PMC10095481", "about": "“Sequence-Dependent Interaction of the Human Papillomavirus E2 Protein with the DNA Elements on Its DNA Replication Origin”", "binders": {"B1": {"name": "recombinant full-length HPV type 11 E2 protein, P04015 1-367 (natural protein)", "chain": "MEAIAKRLDACQDQLLELYEENSIDIHKHIMHWKCIRLESVLLHKAKQMGLSHIGLQVVPPLTVSETKGHNAIEMQMHLESLAKTQYGVEPWTLQDTSYEMWLTPPKRCFKKQGNTVEVKFDGCEDNVMEYVVWTHIYLQDNDSWVKVTSSVDAKGIYYTCGQFKTYYVNFNKEAQKYGSTNHWEVCYGSTVICSPASVSSTVREVSIAEPTTYTPAQTTAPTVSACTTEDGVSAPPRKRARGPSTNNTLCVANIRSVDSTINNIVTDNYNKHQRRNNCHSAATPIVQLQGDSNCLKCFRYRLNDKYKHLFELASSTWHWASPEAPHKNAIVTLTYSSEEQRQQFLNSVKIPPTIRHKVGFMSLHLL"}, "B2": {"name": "BS1 (dsDNA)", "DNA 1": "GGTTCAACCGAAAACGGTTATATG", "DNA 2": "CATATAACCGTTTTCGGTTGAACC"}, "B3": {"name": "BS2 (dsDNA)", "DNA 1": "GGAGGGACCGAAAACGGTTCAACC", "DNA 2": "GGTTGAACCGTTTTCGGTCCCTCC"}, "B4": {"name": "BS4 (dsDNA)", "DNA 1": "CTTGCAACCGTTTTCGGTTGCCCT", "DNA 2": "AGGGCAACCGAAAACGGTTGCAAG"}, "B5": {"name": "BS1 (50 bp) (dsDNA)", "DNA 1": "GGAGGGATTGAAAACTTTTCAACCGAAAACGGTTATATATAAACCAGCCC", "DNA 2": "GGGCTGGTTTATATATAACCGTTTTCGGTTGAAAAGTTTTCAATCCCTCC"}, "B6": {"name": "BS1+2 (50 bp) (dsDNA)", "DNA 1": "B5 DNA 1 with A3C, T8C, T9C, T16G, T17G", "DNA 2": "B5 DNA 2 with A34C, A35C, A42G, A43G, T48G"}, "B7": {"name": "BS3 (dsDNA)", "DNA 1": "CCTGCAACCGGTTTCGGTTACCCA", "DNA 2": "TGGGTAACCGAAACCGGTTGCAGG"}, "B8": {"name": "BS1+2+E1BS (124 bp) (dsDNA)", "DNA 1": "GTAACCCACACCCTACATATTTCCTTCTTATACTTAATAACAATCTTATTTAAAAAAGAGGAGGGACCGAAAACGGTTCAACCGAAAACGGTTATATATAAACCAGCCCAAAAAATTAGCAGA", "DNA 2": "TCTGCTAATTTTTTGGGCTGGTTTATATATAACCGTTTTCGGTTGAACCGTTTTCGGTCCCTCCTCTTTTTTAAATAAGATTGTTATTAAGTATAAGAAGGAAATATGTAGGGTGTGGGTTAC"}, "B9": {"name": "Non-specific (dsDNA)", "DNA 1": "TGGCGGACCCCACCCAGCCCCACGCGCA", "DNA 2": "TGCGCGTGGGGCTGGGTGGGGTCCGCCA"}, "B10": {"name": "BS1 5' mutant (dsDNA)", "DNA 1": "CCTGCAACCGAAAACGGTTATATG", "DNA 2": "CATATAACCGTTTTCGGTTGCAGG"}, "B11": {"name": "BS1 3' mutant (dsDNA)", "DNA 1": "GGTTCAACCGAAAACGGTTACCCA", "DNA 2": "TGGGTAACCGTTTTCGGTTGAACC"}, "B12": {"name": "BS1 5'+3' mutant (dsDNA)", "DNA 1": "CCTGCAACCGAAAACGGTTACCCA", "DNA 2": "TGGGTAACCGTTTTCGGTTGCAGG"}, "B13": {"name": "BS4 with GTTT spacer (dsDNA)", "DNA 1": "CTTGCAACCGGTTTCGGTTGCCCT", "DNA 2": "AGGGCAACCGAAACCGGTTGCAAG"}}, "key": {"[1]": {"molecular_target": "T1, recombinant full-length HPV type 11 E2 protein (human papillomavirus type 11), P04015", "T1 chain": "B1 chain", "experiment": "dynamic light scattering; purified E2 in solution at low (≤0.1 mg/mL) protein concentration; solvent set as 10% glycerol; three separate measurements; monomer to dimer", "details": "remark: other sources report otherwise"}, "[2]": {"molecular_target": "T2, HPV-11 E2 (full length) (Human papillomavirus type 11, UniProt P04015 1-367)", "experiment": "EMSA; 0 C; EMSA: 10 mM HEPES pH 7.9, 50 mM NaCl, 4 mM MgCl2, 10% glycerol, 5 mM DTT, 0.2 mM EDTA, 0.1 mg/mL BSA, 10 ng/uL poly(dI-dC), 10 min 30 C", "details": "protein: recombinant; tags: N-terminal His (pET28a); chain copies: 2; label: 32P"}, "[3]": {"molecular_target": "T2, HPV-11 E2 (full length)", "experiment": "EMSA; apparent Kd; EMSA: 10 mM HEPES pH 7.9, 50 mM NaCl, 4 mM MgCl2, 10% glycerol, 5 mM DTT, 0.2 mM EDTA, 0.1 mg/mL BSA, 10 ng/uL poly(dI-dC), 10 min 30 C", "details": "protein: recombinant; tags: N-terminal His (pET28a); chain copies: 2; label: 32P"}, "[4]": {"molecular_target": "T2, HPV-11 E2 (full length)", "experiment": "EMSA; 30 C; EMSA: 10 mM HEPES pH 7.9, 50 mM NaCl, 4 mM MgCl2, 10% glycerol, 5 mM DTT, 0.2 mM EDTA, 0.1 mg/mL BSA, 10 ng/uL poly(dI-dC), 10 min 30 C", "details": "protein: recombinant; tags: N-terminal His (pET28a); chain copies: 2; label: 32P"}, "[5]": {"molecular_target": "T2, HPV-11 E2 (full length)", "experiment": "competition; unlabeled competitor vs 32P-BS1; EMSA: 10 mM HEPES pH 7.9, 50 mM NaCl, 4 mM MgCl2, 10% glycerol, 5 mM DTT, 0.2 mM EDTA, 0.1 mg/mL BSA, 10 ng/uL poly(dI-dC), 10 min 30 C", "details": "protein: recombinant; tags: N-terminal His (pET28a); chain copies: 2; label: 32P"}, "[6]": {"molecular_target": "T2, HPV-11 E2 (full length)", "experiment": "EMSA; 35 C; EMSA: 10 mM HEPES pH 7.9, 50 mM NaCl, 4 mM MgCl2, 10% glycerol, 5 mM DTT, 0.2 mM EDTA, 0.1 mg/mL BSA, 10 ng/uL poly(dI-dC), 10 min 30 C", "details": "protein: recombinant; tags: N-terminal His (pET28a); chain copies: 2; label: 32P"}, "[7]": {"molecular_target": "T2, HPV-11 E2 (full length)", "experiment": "EMSA; 10 C; EMSA: 10 mM HEPES pH 7.9, 50 mM NaCl, 4 mM MgCl2, 10% glycerol, 5 mM DTT, 0.2 mM EDTA, 0.1 mg/mL BSA, 10 ng/uL poly(dI-dC), 10 min 30 C", "details": "protein: recombinant; tags: N-terminal His (pET28a); chain copies: 2; label: 32P"}, "[8]": {"molecular_target": "T2, HPV-11 E2 (full length)", "experiment": "EMSA; 20 C; EMSA: 10 mM HEPES pH 7.9, 50 mM NaCl, 4 mM MgCl2, 10% glycerol, 5 mM DTT, 0.2 mM EDTA, 0.1 mg/mL BSA, 10 ng/uL poly(dI-dC), 10 min 30 C", "details": "protein: recombinant; tags: N-terminal His (pET28a); chain copies: 2; label: 32P"}, "[9]": {"molecular_target": "T2, HPV-11 E2 (full length)", "experiment": "EMSA; flank experiment WT; EMSA: 10 mM HEPES pH 7.9, 50 mM NaCl, 4 mM MgCl2, 10% glycerol, 5 mM DTT, 0.2 mM EDTA, 0.1 mg/mL BSA, 10 ng/uL poly(dI-dC), 10 min 30 C", "details": "protein: recombinant; tags: N-terminal His (pET28a); chain copies: 2; label: 32P"}, "[10]": {"molecular_target": "T2, HPV-11 E2 (full length)", "experiment": "EMSA; spacer experiment WT (TTTT); EMSA: 10 mM HEPES pH 7.9, 50 mM NaCl, 4 mM MgCl2, 10% glycerol, 5 mM DTT, 0.2 mM EDTA, 0.1 mg/mL BSA, 10 ng/uL poly(dI-dC), 10 min 30 C", "details": "protein: recombinant; tags: N-terminal His (pET28a); chain copies: 2; label: 32P"}, "[11]": {"molecular_target": "T2, HPV-11 E2 (full length)", "experiment": "EMSA; single complex C1; EMSA: 10 mM HEPES pH 7.9, 50 mM NaCl, 4 mM MgCl2, 10% glycerol, 5 mM DTT, 0.2 mM EDTA, 0.1 mg/mL BSA, 10 ng/uL poly(dI-dC), 10 min 30 C", "details": "protein: recombinant; tags: N-terminal His (pET28a); chain copies: 2; label: 32P"}, "[12]": {"molecular_target": "T2, HPV-11 E2 (full length)", "experiment": "EMSA; C1, C2 and C3 complexes; EMSA: 10 mM HEPES pH 7.9, 50 mM NaCl, 4 mM MgCl2, 10% glycerol, 5 mM DTT, 0.2 mM EDTA, 0.1 mg/mL BSA, 10 ng/uL poly(dI-dC), 10 min 30 C", "details": "protein: recombinant; tags: N-terminal His (pET28a); chain copies: 2; label: 32P"}, "[13]": {"molecular_target": "T2, HPV-11 E2 (full length)", "experiment": "EMSA; affinity similar to BS1+2; C1, C2 and C3; EMSA: 10 mM HEPES pH 7.9, 50 mM NaCl, 4 mM MgCl2, 10% glycerol, 5 mM DTT, 0.2 mM EDTA, 0.1 mg/mL BSA, 10 ng/uL poly(dI-dC), 10 min 30 C", "details": "protein: recombinant; tags: N-terminal His (pET28a); chain copies: 2; label: 32P"}, "[14]": {"molecular_target": "T2, HPV-11 E2 (full length)", "experiment": "EMSA; no complex at 80 nM E2; EMSA: 10 mM HEPES pH 7.9, 50 mM NaCl, 4 mM MgCl2, 10% glycerol, 5 mM DTT, 0.2 mM EDTA, 0.1 mg/mL BSA, 10 ng/uL poly(dI-dC), 10 min 30 C", "details": "protein: recombinant; tags: N-terminal His (pET28a); chain copies: 2; label: 32P"}, "[15]": {"molecular_target": "T2, HPV-11 E2 (full length)", "experiment": "EMSA; EMSA: 10 mM HEPES pH 7.9, 50 mM NaCl, 4 mM MgCl2, 10% glycerol, 5 mM DTT, 0.2 mM EDTA, 0.1 mg/mL BSA, 10 ng/uL poly(dI-dC), 10 min 30 C", "details": "protein: recombinant; tags: N-terminal His (pET28a); chain copies: 2; label: 32P"}}, "note": "Numbering of substitutions follows the chain as printed.", "data": [{"binder": "B1", "values": [{"measurement": "stoichiometry N", "setting": "[1]", "result": 2}]}, {"binder": "B2", "values": [{"measurement": "Kd", "setting": "[2]", "result": "7.3 ± 0.7", "unit": "nM"}, {"measurement": "Kd", "setting": "[3]", "result": "6.2 ± 0.9", "unit": "nM"}, {"measurement": "Kd", "setting": "[4]", "result": "5.3 ± 0.4", "unit": "nM"}, {"measurement": "Kd", "setting": "[5]", "result": "6.2 ± 1.4", "unit": "nM"}, {"measurement": "Kd", "setting": "[6]", "result": "5.7 ± 1.1", "unit": "nM"}, {"measurement": "Kd", "setting": "[7]", "result": "5.5 ± 1.5", "unit": "nM"}, {"measurement": "Kd", "setting": "[8]", "result": "6.2 ± 1.4", "unit": "nM"}, {"measurement": "Kd", "setting": "[9]", "result": "6 ± 0.7", "unit": "nM"}]}, {"binder": "B3", "values": [{"measurement": "Kd", "setting": "[3]", "result": "7.8 ± 0.7", "unit": "nM"}, {"measurement": "Kd", "setting": "[5]", "result": "6 ± 0.6", "unit": "nM"}]}, {"binder": "B4", "values": [{"measurement": "Kd", "setting": "[10]", "result": "4.4 ± 0.4", "unit": "nM"}, {"measurement": "Kd", "setting": "[3]", "result": "4.8 ± 0.7", "unit": "nM"}, {"measurement": "Kd", "setting": "[5]", "result": "4.6 ± 0.4", "unit": "nM"}]}, {"binder": "B5", "values": [{"measurement": "Kd", "setting": "[11]", "result": "5.3 ± 0.6", "unit": "nM"}]}, {"binder": "B6", "values": [{"measurement": "Kd", "setting": "[12]", "result": "4.2 ± 0.3", "unit": "nM"}]}, {"binder": "B7", "values": [{"measurement": "Kd", "setting": "[3]", "result": "10.2 ± 1.7", "unit": "nM"}]}, {"binder": "B8", "values": [{"measurement": "binding result", "setting": "[13]", "result": "binds"}]}, {"binder": "B9", "values": [{"measurement": "binding result", "setting": "[14]", "result": "no binding"}]}, {"binder": "B10", "values": [{"measurement": "Kd", "setting": "[15]", "result": "6.4 ± 0.6", "unit": "nM"}]}, {"binder": "B11", "values": [{"measurement": "Kd", "setting": "[15]", "result": "7.6 ± 0.6", "unit": "nM"}]}, {"binder": "B12", "values": [{"measurement": "Kd", "setting": "[15]", "result": "7.7 ± 1.7", "unit": "nM"}]}, {"binder": "B13", "values": [{"measurement": "Kd", "setting": "[15]", "result": "6.4 ± 0.6", "unit": "nM"}]}]}
